Assay: soluble on expression in E. coli; label from the status in PepcDB or PDB records

Sequence	soluble on expression in E. coli
GMTTENTTALLLIDFQNDYFSTYNGAKNPLVGTEAAAEQGAKLLAKFRQQGLPVVHVRHEFPTDEAPFFLPGSDGAKIHPSVAAQEGEAVVLKHQINSFRDTDLKKVLDDAGIKKLVIVGAMTHMCIDAVTRAAEDLGYECAVAHDACATLDLEFNGITVPAAQVHAAFMSALSFAYANVASADELIAGL	soluble
GMTTNTIMEQEARTAPQKIAEQLLANDAITESLGSVLREFKPKFVMIVGRGSSDHAGVFAKYLFEIEASIPTFAAAPSVASVYGKTLKLAGGLVIVISQSGRSPDILAQARMAKNAGAFCVALVNDETAPIKDIVDVVIPLRAGEEKAVAATKSYLATLSALLQVAAKWTQNESLVEAVNSLPQALQAAVDAEPQLRAGSLTDVKNLVVLGRGFGYAVSKEIALKLKEVCAIHAEAFSSAEFLHGPVTLVEKKLSILDVCIRDESYGSHVEQIANVKQRGANLIHLHQTSADIHPRIAPLALLQRFYIDVAAVAIALGINPDKPAGLKKVTQTL	soluble
GMYNPVGVAAIGLGRWAYVMADAYTKSEKLKLVTCYSRTEDKREKFGKRYNCAGDATMEALLAREDVEMVIITVPNDKHAEVIEQCARSGKHIYVEKPISVSLDHAQRIDQVIKETGVKFLCGHSSRRLGALRKMKEMIDTKEIGEVSSIEAVFSNERGLELKKGNWRGEPATAPGGPLTQLGVHQIDNLQFLLGPVARVFNFGKPMYTEVENITVNQTLLEFEDGKQAYLGTNWACPGVFSINVYGTKANLFYQLDFSWWSNSDVTDEHSTLIKREFASMSDDPDNRILRDVKVDFESVDHLRVEVEEVADVIRNGGETEIGAEASLRNLAVVLAAVKSVHEKRPVEIAEIIG	soluble
GPAIAENLYFQSPQLNGGGGDDLGANDELISFKDEGEQEEKSSENSSAERDLADVKSSLVNESETNQNSSSDSEAERRPPPRSESFRDKSRESLEEAAKRQDGGLFKGPPYPGYPFIMIPDLTSPYLPNGSLSPTARTYLQMKWPLLDVQAGSLQSRQALKDARSPSPAHIVSNKVPVVQHPHHVHPLTPLITYSNEHFTPGNPPPHLPADVDPKTGIPRPPHPPDISPYYPLSPGTVGQIPHPLGWQGQPVYPITTGGFRHPYPTALTVNASMSRFPPHMVPPHHTLHTTGIPHPAIVTPTVKQESSQSDVGSLHSSKHQDSKKEEEKKKPHIKKPLNAFMLYMKEMRAKVVAECTLKESAAINQILGRRWHALSREEQAKYYELARKERQLHMQLYPGWSARDNYGKKKKRKRDKQPGETNEHSECFLNPCLSLPPITGEKKSAFATYKVKAAASAHPLQMEAY	soluble
GPGSDVFFSGYLNKLKGGDNHSWKKRYLQVQKGHFIMSDKESDTEGKALSLEHIQSVCPVPVSTAKREHVFALHTTSGKSMWFEAASLENMEEWIHAIQCGLGVA	soluble
GPGSMALPRLQMFALASRIEELVLDSVTVHPHSVVAIGNAERQGNGQPPPPSNWVPLSDLASLQKLRRLDMTNCKGDFDCAGIARCCFLRSVHLSGCNVKDADVPHLAQLPCVEELLLSRTRITNVQALAAGKGLRIIQLSNAQVDSDGIDGLQTLPYLTRLDLSSTLVSDVNCLGQSQSLIYLNLAKTHVTSEGIAGLSRLLTLEHLMLNNNNIRDVSFLAESHSLKTLSLQSTLVDSAGLEGLGRLRTLQDLSLAHTRVTNVTKLQHCRNLWRLDLQGSFVDQAGIVGLERLPKLRVLVLSKTDVASLELILKSESLEQLEVKFSHVNERSAFFGVTKASALTDVTLTHCDVSDINNLGMCKELRLLNVWSSKVTSEGIAGLCDARSLQEVDLAETAVTDISPLLSCTKIQALILYRSSVRSLDGIGALQQLRRLDIAETSVSSIRSLSACQRLEILNLSNTAVDDDGFQGIGQAQSLKVVSMSFTAITQVGQLGQCSHLEELHAQSCPVTSEGLVGLERACCLVKLNLSYTKLQSGIQRLTNCRKLLKLNVKFTEVPYDEVAYVKRHLPSCRVMNDAAQRMAKDVTLLT	not soluble
